Columns and labels:
[1] = tested on: Azospirillum brasilense phenylpyruvate decarboxylase (AbPPDC); conditions: Spaepen et al., J. Bacteriol., 2007; cited from earlier work
[2] = substrate: CCCCCCCC(=O)C(=O)O; assay: HTP AbPPDC coupled enzyme assay (ADH6/NADPH), 2-ketoacid decarboxylation kinetics, Q536I; type: biochemical, Azospirillum brasilense; conditions: other: pH 6.8, 30° C, 2-ketoacid 0 to 4 mM, Michaelis-Menten equation, mean ± standard error
Protocol: (§1) The evaluation of the AbPPDC variants is performed in two steps using the high-throughput enzyme assay described hereinbelow. Initially, all the variants are tested for activity against a single high concentration (2 mM) of 2-KH and 2-KN (as shown in Table 1). Following the initial evaluation, detailed kinetic analysis is performed on a select number of variants to determine the maximal rate (kcat), substrate concentration yielding half maximal rate (K0.5, equivalent of KM for enzymes following Michaelis-Menten kinetics), and the catalytic efficiency of the enzyme (kcat/K0.5) against 2-KO and 2-KN (as shown in Table 2). AbPPDC variants, having higher specificity (higher kcat/K0.5) for 2-KN, will be efficient in producing octanal and chemicals derived from it inside the cells.
(§2) To evaluate the substrate specificity of the wild type AbPPDC and its variants listed in Table 1, genes of all the proteins are expressed in E. coli cells separately and the protein products are isolated from the cells. The gene sequence of the Azospirillum brasilense phenylpyruvate decarboxylase (GenBank: Accession no. L26240) is downloaded from the NCBI database. Codons of 13 additional amino acids that include six (6) histidines (his) are added upstream of the Met-1 codon of the AbPPDC gene sequence. Such a modification allows expression of a Histidine-tagged AbPPDC having 13 additional amino acids on the N-terminus. The additional amino acids are attached as an aid for purifying the protein in a single step using Ni-NTA chromatography. The entire AbPPDC sequence with 13 additional amino acids (SEQ ID 2) is chemically synthesized and then cloned into the pRSFDuet-1 vector (EMD Biosciences) downstream of the T7 polymerase promoter by Synthetic Genomics, Inc. (San Diego, Calif.). The final vector is sequenced by Synthetic Genomics, Inc. before shipping.
(§3) Genes of the AbPPDC variants listed in Table 1 are either chemically synthesized or generated using New England Biolab's Q5 Site-directed Mutagenesis Kit (cat. no. E0554S) and cloned into the pRSFDuet-1 vector. The pRSFDuet-1 vector containing AbPPDC or the AbPPDC variant gene is transformed into E. coli, AbPPDC or its variant, then expressed and eventually purified, as described below.
(§4) A high-throughput AbPPDC coupled enzyme assay is developed for evaluating the substrate specificity of AbPPDC variants. The assay involves reducing the aldehyde produced from AbPPDC mediated 2-ketoacid decarboxylation, using an alcohol dehydrogenase (ADH6, GenBank: Accession No. NP 014051.3). The initial velocities of the AbPPDC catalyzed reactions are determined from the rates of oxidation of reduced nicotinamide adenine dinucleotide phosphate (NADPH) occurring during the ADH6 catalyzed reduction of aldehyde.
(§5) The HTP screening assay involves incubating 2 mM 2-KH or 2 mM 2-KN with 0.5 mM thiamine diphosphate, 0.35 mM NADPH, 4.7 micrograms (μg) of yeast ADH6 (GenBank: Accession No. NP 014051.3) and 0.3 milligrams per milliliter (mg/mL) bovine serum albumin (BSA) in AbPPDC assay buffer (50 mM 3-(N-morpholino)propanesulfonic acid, pH 6.8, containing 2.5 mM magnesium chloride (MgCl2)) at 30° C. The reaction is started by addition at 30° C. of working enzyme stock containing from 0.5 μg to 3.5 μg of AbPPDC variant diluted in AbPPDC assay buffer containing 1 mg/mL BSA. The plate containing the 200 μL of reaction mixture is centrifuged at 2500×g for 15 sec and the absorbance change of the reaction mixture followed spectrophotometrically at 340 nm on a BioTek™ plate reader, pre-equilibrated at 30° C. Initial velocity of the enzyme reaction is calculated using the rate of NADPH consumption at 340 nm and the extinction coefficient of NADPH (6.22 mM^−1 cm^−1). The activity of all the variants is normalized with the amount of enzyme present in the reaction mixture and expressed as nanomoles per minute per milligram (nmol·min^−1·mg^−1). […]

[3] = substrate: CCCCCCC(=O)C(=O)O; assay: as above; type: biochemical, Azospirillum brasilense; conditions: other: pH 6.8, 30° C, 2-ketoacid 0 to 4 mM, Michaelis-Menten equation, mean ± standard error
Protocol: as §1, §2, §3, §4, §5

[4] = substrate: CCCCCCCC(=O)C(=O)O; assay: HTP AbPPDC coupled enzyme assay (ADH6/NADPH), 2-ketoacid decarboxylation kinetics, wild type; type: biochemical, Azospirillum brasilense; conditions: other: pH 6.8, 30° C, 2-ketoacid 0 to 4 mM, Hill equation, mean ± standard error
Protocol: as §1, §2, §4
(§6) The HTP screening assay involves incubating 2 mM 2-KH or 2 mM 2-KN with 0.5 mM thiamine diphosphate, 0.35 mM NADPH, 4.7 micrograms (μg) of yeast ADH6 (GenBank: Accession No. NP 014051.3) and 0.3 milligrams per milliliter (mg/mL) bovine serum albumin (BSA) in AbPPDC assay buffer (50 mM 3-(N-morpholino)propanesulfonic acid, pH 6.8, containing 2.5 mM magnesium chloride (MgCl2)) at 30° C. The reaction is started by addition at 30° C. of working enzyme stock containing from 0.5 μg to 3.5 μg of AbPPDC variant diluted in AbPPDC assay buffer containing 1 mg/mL BSA. The plate containing the 200 μL of reaction mixture is centrifuged at 2500×g for 15 sec and the absorbance change of the reaction mixture followed spectrophotometrically at 340 nm on a BioTek™ plate reader, pre-equilibrated at 30° C. Initial velocity of the enzyme reaction is calculated using the rate of NADPH consumption at 340 nm and the extinction coefficient of NADPH (6.22 mM^−1 cm^−1). The activity of all the variants is normalized with the amount of enzyme present in the reaction mixture and expressed as nanomoles per minute per milligram (nmol·min^−1·mg^−1). Protein concentrations for normalizing the activities are determined using the 660 nm total protein assay kit from Pierce Biotechnology Inc., available from Thermo Fisher Scientific, Inc., using BSA as the standard.
(§7) The kinetic parameters of the decarboxylation of 2-ketooctanoate (2-KO) and 2-ketononanoate (2-KN) by AbPPDC and its variants are also determined using the same HTP AbPPDC coupled enzyme assay, except that the concentrations of 2-KO or 2-KN are varied from 0 to 4 mM. […]

[5] = substrate: CCCCCCC(=O)C(=O)O; assay: as above; type: biochemical, Azospirillum brasilense; conditions: other: pH 6.8, 30° C, 2-ketoacid 0 to 4 mM, Hill equation, mean ± standard error
Protocol: as §1, §2, §4, §6, §7

[6] = substrate: CCCCCCCC(=O)C(=O)O; assay: HTP AbPPDC coupled enzyme assay (ADH6/NADPH), 2-ketoacid decarboxylation kinetics, M461L; type: biochemical, Azospirillum brasilense; conditions: other: pH 6.8, 30° C, 2-ketoacid 0 to 4 mM, Hill equation, mean ± standard error
Protocol: as §1, §2, §3, §4, §5

[7] = substrate: CCCCCCC(=O)C(=O)O; assay: as above; type: biochemical, Azospirillum brasilense; conditions: other: pH 6.8, 30° C, 2-ketoacid 0 to 4 mM, Hill equation, mean ± standard error
Protocol: as §1, §2, §3, §4, §5

[8] = substrate: CCCCCCCC(=O)C(=O)O; assay: HTP AbPPDC coupled enzyme assay (ADH6/NADPH), 2-ketoacid decarboxylation kinetics, F385L; type: biochemical, Azospirillum brasilense; conditions: other: pH 6.8, 30° C, 2-ketoacid 0 to 4 mM, Hill equation, mean ± standard error
Protocol: as §1, §2, §3, §4, §5

[9] = substrate: CCCCCCC(=O)C(=O)O; assay: as above; type: biochemical, Azospirillum brasilense; conditions: other: pH 6.8, 30° C, 2-ketoacid 0 to 4 mM, Hill equation, mean ± standard error
Protocol: as §1, §2, §3, §4, §5

Molecule: O=C(O)C(=O)Cc1ccccc1 [phenylpyruvic acid]
- catalytic efficiency [1]: high catalytic efficiencies

B1: Azospirillum brasilense phenylpyruvate decarboxylase (AbPPDC) variant Q536I, SEQ ID 38 (Azospirillum brasilense; Q536I) (protein)
chain: MKLAEALLRALKDRGAQAMFGIPGDFALPFFKVAEETQILPLHTLSHEPAVGFAADAAARYSSTLGVAAVTYGAGAFNMVNAVAGAYAEKSPVVVISGAPGTTEGNAGLLLHHQGRTLDTQFQVFKEITVAQARLDDPAKAPAEIARVLGAARALSRPVYLEIPRNMVNAEVEPVGDDPAWPVDRDALAACADEVLAAMRSATSPVLMVCVEVRRYGLEAKVAELAQRLGVPVVTTFMGRGLLADAPTPPLGTYIGVAGDAEITRLVEESDGLFLLGAILSDTNFAVSQRKIDLRKTIHAFDRAVTLGYHTYADIPLAGLVDALLEGLPPSDRTTRGKEPHAYPTGLQADGEPIAPMDIARAVNDRVRAGQEPLLIAADMGDCLFTAMDMIDAGLMAPGYYAGMGFGVPAGIGAQCVSGGKRILTVVGDGAFQMTGWELGNCRRLGIDPIVILFNNASWEMLRTFQPESAFNDLDDWRFADMAAGMGGDGVRVRTRAELKAALDKAFATRGRFQLIEAMIPRGVLSDTLARFVQGIKRLHAAPRE
notes: made in house; host or cells: E. coli BL21(DE3)
- K0.5 [2]: 0.69 ± 0.09 mM
- kcat [2]: 1.05 ± 0.05 s⁻¹
- kcat/Km [2]: 1530 ± 217 M⁻¹ s⁻¹
- K0.5 [3]: 0.71 ± 0.07 mM
- kcat [3]: 0.533 ± 0.0183 s⁻¹
- kcat/Km [3]: 750 ± 83 M⁻¹ s⁻¹

B2: Azospirillum brasilense phenylpyruvate decarboxylase (AbPPDC), wild type, SEQ ID 4 (GenBank L26240), 13-amino acid N-terminal histidine tag (Azospirillum … (protein)
chain: MKLAEALLRALKDRGAQAMFGIPGDFALPFFKVAEETQILPLHTLSHEPAVGFAADAAARYSSTLGVAAVTYGAGAFNMVNAVAGAYAEKSPVVVISGAPGTTEGNAGLLLHHQGRTLDTQFQVFKEITVAQARLDDPAKAPAEIARVLGAARALSRPVYLEIPRNMVNAEVEPVGDDPAWPVDRDALAACADEVLAAMRSATSPVLMVCVEVRRYGLEAKVAELAQRLGVPVVTTFMGRGLLADAPTPPLGTYIGVAGDAEITRLVEESDGLFLLGAILSDTNFAVSQRKIDLRKTIHAFDRAVTLGYHTYADIPLAGLVDALLEGLPPSDRTTRGKEPHAYPTGLQADGEPIAPMDIARAVNDRVRAGQEPLLIAADMGDCLFTAMDMIDAGLMAPGYYAGMGFGVPAGIGAQCVSGGKRILTVVGDGAFQMTGWELGNCRRLGIDPIVILFNNASWEMLRTFQPESAFNDLDDWRFADMAAGMGGDGVRVRTRAELKAALDKAFATRGRFQLIEAMIPRGVLSDTLARFVQGQKRLHAAPRE
notes: as for B1
- K0.5 [4]: 1.23 ± 0.02 mM
- kcat [4]: 0.333 ± 0 s⁻¹
- kcat/Km [4]: 270 ± 6.7 M⁻¹ s⁻¹
- K0.5 [5]: 1.7 ± 0.1 mM
- kcat [5]: 0.25 ± 0.012 s⁻¹
- kcat/Km [5]: 150 ± 12 M⁻¹ s⁻¹

B3: Azospirillum brasilense phenylpyruvate decarboxylase (AbPPDC) variant M461L, SEQ ID 18 (Azospirillum brasilense; M461L) (protein)
chain: MKLAEALLRALKDRGAQAMFGIPGDFALPFFKVAEETQILPLHTLSHEPAVGFAADAAARYSSTLGVAAVTYGAGAFNMVNAVAGAYAEKSPVVVISGAPGTTEGNAGLLLHHQGRTLDTQFQVFKEITVAQARLDDPAKAPAEIARVLGAARALSRPVYLEIPRNMVNAEVEPVGDDPAWPVDRDALAACADEVLAAMRSATSPVLMVCVEVRRYGLEAKVAELAQRLGVPVVTTFMGRGLLADAPTPPLGTYIGVAGDAEITRLVEESDGLFLLGAILSDTNFAVSQRKIDLRKTIHAFDRAVTLGYHTYADIPLAGLVDALLEGLPPSDRTTRGKEPHAYPTGLQADGEPIAPMDIARAVNDRVRAGQEPLLIAADMGDCLFTAMDMIDAGLMAPGYYAGMGFGVPAGIGAQCVSGGKRILTVVGDGAFQMTGWELGNCRRLGIDPIVILFNNASWELLRTFQPESAFNDLDDWRFADMAAGMGGDGVRVRTRAELKAALDKAFATRGRFQLIEAMIPRGVLSDTLARFVQGQKRLHAAPRE
notes: as for B1
- K0.5 [6]: 0.97 ± 0.04 mM
- kcat [6]: 0.467 ± 0.017 s⁻¹
- kcat/Km [6]: 483 ± 23.3 M⁻¹ s⁻¹
- K0.5 [7]: 1.4 ± 0.1 mM
- kcat [7]: 0.2 ± 0.0083 s⁻¹
- kcat/Km [7]: 148 ± 12 M⁻¹ s⁻¹

B4: Azospirillum brasilense phenylpyruvate decarboxylase (AbPPDC) variant F385L, SEQ ID 8 (Azospirillum brasilense; F385L) (protein)
chain: MKLAEALLRALKDRGAQAMFGIPGDFALPFFKVAEETQILPLHTLSHEPAVGFAADAAARYSSTLGVAAVTYGAGAFNMVNAVAGAYAEKSPVVVISGAPGTTEGNAGLLLHHQGRTLDTQFQVFKEITVAQARLDDPAKAPAEIARVLGAARALSRPVYLEIPRNMVNAEVEPVGDDPAWPVDRDALAACADEVLAAMRSATSPVLMVCVEVRRYGLEAKVAELAQRLGVPVVTTFMGRGLLADAPTPPLGTYIGVAGDAEITRLVEESDGLFLLGAILSDTNFAVSQRKIDLRKTIHAFDRAVTLGYHTYADIPLAGLVDALLEGLPPSDRTTRGKEPHAYPTGLQADGEPIAPMDIARAVNDRVRAGQEPLLIAADMGDCLLTAMDMIDAGLMAPGYYAGMGFGVPAGIGAQCVSGGKRILTVVGDGAFQMTGWELGNCRRLGIDPIVILFNNASWEMLRTFQPESAFNDLDDWRFADMAAGMGGDGVRVRTRAELKAALDKAFATRGRFQLIEAMIPRGVLSDTLARFVQGQKRLHAAPRE
notes: as for B1
- K0.5 [8]: 2.39 ± 0.26 mM
- kcat [8]: 0.283 ± 0.017 s⁻¹
- kcat/Km [8]: 117 ± 16.7 M⁻¹ s⁻¹
- K0.5 [9]: 2.3 ± 0.5 mM
- kcat [9]: 0.0283 ± 0.005 s⁻¹
- kcat/Km [9]: 13 ± 3.3 M⁻¹ s⁻¹
